These results are taken from patent US20190002549A1 (I MAB BIOPHARMA, published 2019).

As usually defined, the Kd is a measure of binding affinity in units of concentration. The koff is the rate constant with which the complex falls apart. Usually kon stands for a measure of how fast the partners come together. Broadly, the EC50 is the concentration at which the effect is half-maximal.

Assay [1] addresses T1, recombinant human GM-CSF protein (human, UniProt P04141 18-144). In words: cell-based or functional assay.
Assay [2] addresses T1, recombinant human GM-CSF protein. Put plainly: SPR Biacore T200, antibody captured by anti-human Fc, GM-CSF as analyte, 25 C, 1:1 model. As for the experimental part: The binding kinetics of humanized antibodies were measured by Biacore as previously described. […] The binding kinetics assay of antibody to antigen was performed using Biacore T200 system through a human antibody capture approach. The anti-human Fc IgG were immobilized on CMS sensor chip according to the manufacturer's instruction. The test antibody was injected and captured by the immobilized anti-human Fc IgG. And then serial concentrations of the antigen were individually injected, and the binding profile was recorded for each concentration of antigen analyte, respectively.
The assay system was regenerated by injection of 10 mM Glycine-HCL pH 1.5 for 30 seconds. The running buffer was HBS-EP+ (10 mM HEPES, pH 7.4, 150 mM NaCl, 3 mM EDTA and 0.05% P20). The assay temperature was 25° C., and the association and dissociation time were 180 and 600 seconds, respectively.
For orientation: Surface plasmon resonance follows binding to a sensor surface in real time, without labels.

The target of assay [3] is T2, recombinant rhesus GM-CSF protein (rhesus, UniProt Q9GL44 18-144).
T2 construct: Bought recombinant protein (Genscript)
T2 sequence (Q9GL44 entry or part of it limits assumed): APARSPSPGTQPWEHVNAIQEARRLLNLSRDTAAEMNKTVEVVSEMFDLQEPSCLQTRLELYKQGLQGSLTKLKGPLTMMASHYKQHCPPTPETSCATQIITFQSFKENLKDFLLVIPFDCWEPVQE
Put plainly: ELISA, rhesus GM-CSF coated at 1 ug/ml. As to the method: Recombinant rhesus GM-CSF protein (Genscript) was coated at 1 ug/ml in PBS onto microtiter plates for 2 h at room temperature (RT). After coating of antigen, the wells were blocked with PBS/0.05% Tween (PBST) with 1% BSA for 1 h at RT. After washing of the wells with PBST, different concentrations of humanized anti-GM-CSF antibodies were added to the well and incubated for 1 at RT. For detection of the binding antibodies, the HRP-conjugated secondary antibodies against mouse Fc (Jackson Immuno Research) were added, followed by the addition of fluorogenic substrates (Roche). Between all incubation steps, the wells of the plate were washed with PBST three times. Fluorescence was measured in a TECAN Spectrafluor plate reader.
On the technique in general: In an ELISA, binding on a coated surface is turned into a signal by an enzyme label.

Changes are numbered by the printed parent chain.

T1 sequence (P04141 18-144 limits assumed): as the sequence (Q9GL44 entry or part of it limits assumed) above, with G9S, K38E, V43I, S53T, Q67R, Q104E counted along it

B1: Hu23F4-29 (antibody, V domains shown)
VH: EVQLVQSGAEVKKPGASVKVSCKASGYTFTSHYLHWVRQAPGQGLEWMGWIFPGDDKTKYNEKFKGRVTLTSDTSISTAYMELSRLRSDDTAVYYCARGTKYLNWNFDVWGQGTTVTVSS
VL: DIQLTQSPSFLSASVGDRVTITCKANQNVGTTLAWYQQKPGKAPKALIYSASYRYSGVPSRFSGSGSGTEFTLTISSLQPEDFATYYCHQYTTYPLTFGGGTKVEIK
notes: Humanized
Consider B1, for which, in assay [1], the “IC50 for TF-1 proliferation” value was 0.0274 µg/mL. In addition, in assay [2], the equilibrium dissociation constant (Kd) amounted to 152 pM, the dissociation rate constant (koff) came out at 0.000101 s⁻¹ and the kon stood at 667000 M⁻¹ s⁻¹.

B2: Hu23F4-23 (antibody, V domains shown)
VH: B1 VH with L70M, S72R
VL: B1 VL with A43S, S60D, E70D, Y87F
notes: Humanized
With B2, in assay [1], the “IC50 for TF-1 proliferation” value amounted to 0.00908 µg/mL. Besides, in assay [2], the Kd was determined as 130 pM, the dissociation rate constant (koff) was found to be 0.000116 s⁻¹ and the on-rate (kon) came to 899000 M⁻¹ s⁻¹.

B3: Hu23F4-13 (antibody, V domains shown)
VH: EVQLVQSGAEVKKPGATVKISCKVSGYTFTSHYLHWVQQAPGKGLEWIGWIFPGDDKTKYNEKFKGRATLTSDTSTDTAYMELSSLRSEDTAVYYCARGTKYLNWNFDVWGQGTTVTVSS
VL: B1 VL with A46L
notes: Humanized
With B3, the “IC50 for TF-1 proliferation” value in assay [1] was 0.00495 µg/mL. Besides, in assay [2], the Kd stood at 93.5 pM, the koff amounted to 0.00012 s⁻¹ and the kon was 1.28e+06 M⁻¹ s⁻¹. In assay [3], the EC50 is 0.00744 µg/mL.

B4: Hu23F4-27 (antibody, V domains shown)
VH: B1 VH with L70M
VL: B1 VL with A43S, S60D, E70D, Y87F
notes: Humanized
Take B4: the “IC50 for TF-1 proliferation” value in assay [1] was determined as 0.00395 µg/mL. Besides, in assay [2], the dissociation constant Kd worked out at 102 pM, the koff was 9.46e-05 s⁻¹ and the on-rate constant (kon) worked out at 923000 M⁻¹ s⁻¹. Moreover, the EC50 in assay [3] came out at 0.00625 µg/mL.

B5: Hu23F4-25 (antibody, V domains shown)
VH: B1 VH with L70M
VL: B1 VL
notes: Humanized
With B5, the “IC50 for TF-1 proliferation” value in assay [1] was determined as 0.0122 µg/mL. Further, in assay [2], the Kd was found to be 172 pM, the koff turned out to be 0.000109 s⁻¹ and the kon worked out at 635000 M⁻¹ s⁻¹.

B6: Hu23F4-6 (antibody, V domains shown)
VH: B3 VH with I48M, A68V, L70I
VL: B1 VL
notes: Humanized
Turning to B6, the “IC50 for TF-1 proliferation” value in assay [1] was 0.00787 µg/mL. Also, in assay [2], the Kd turned out to be 154 pM, the koff is 0.000135 s⁻¹ and the kon was 876000 M⁻¹ s⁻¹.

B7: Hu23F4-20 (antibody, V domains shown)
VH: B1 VH with L70M, S72R
VL: B1 VL with A46L
notes: Humanized
As for B7, in assay [1], the “IC50 for TF-1 proliferation” value stood at 0.00877 µg/mL. Also, in assay [2], the Kd came out at 142 pM, the dissociation rate constant (koff) was 0.000114 s⁻¹ and the on-rate (kon) is 801000 M⁻¹ s⁻¹.

B8: Hu23F4-36 (antibody, V domains shown)
VH: B1 VH with G26D, F29L, M48I, V68A
VL: B1 VL with A46L
notes: Humanized
On to B8, for which the “IC50 for TF-1 proliferation” value in assay [1] turned out to be 0.0033 µg/mL. Moreover, in assay [2], the dissociation constant (Kd) was determined as 80.7 pM, the dissociation rate constant (koff) came to 0.000103 s⁻¹ and the association rate constant (kon) amounted to 1.27e+06 M⁻¹ s⁻¹. The EC50 in assay [3] was found to be 0.00775 µg/mL.

B9: Hu23F4-5 (antibody, V domains shown)
VH: B3 VH with I48M, A68V, L70I
VL: B1 VL with A46L
notes: Humanized
With B9, the “IC50 for TF-1 proliferation” value in assay [1] is 0.0156 µg/mL. In addition, in assay [2], the Kd was 104 pM, the koff worked out at 0.000124 s⁻¹ and the kon was found to be 1.19e+06 M⁻¹ s⁻¹.

B10: 23F4 chimera (antibody, V domains shown)
VH: QVQLQQSGPELVKPGTSMKISCKTSDYTLTSHYLHWVKQRPGQGLEWIGWIFPGDDKTKYNEKFKGKATLTSDKTSNTAYMQLSSLTSEESAVYFCARGTKYLNWNFDVWGTGTTVTVSS
VL: DIVLTQPQKFLSTSVGDRVSVTCKANQNVGTTLAWYQQKPGQSPKALIYSASYRYSGVPDRFTGSGSGTDFTLTISNVQSEDLAEYFCHQYTTYPLTFGGGTKLEIK
notes: Human constant regions (captured by anti-human Fc IgG); also called Hu23F4-chimera
For B10, the “IC50 for TF-1 proliferation” value in assay [1] is 0.00855 µg/mL. In assay [2], the Kd stood at 31.5 pM, the koff amounted to 3.87e-05 s⁻¹ and the kon amounted to 1.23e+06 M⁻¹ s⁻¹.

B11: Hu50C5-6 (antibody, V domains shown)
VH: EVQLVQSGAEVKKPGSSVKVSCKASGYIFSPYSIHWVRQAPGQGLEWMGYINPSTGYIEYNQHFKDRVTITADKSTSTAYMELRSLRSEDTAVYYCARGGDYEGYFDYWGQGTTVTVSS
VL: DIQMTQSPSSLSASVGDRVTITCRLNENIYSFLAWYQQKPGKAPKLLIYNAETLAEGVPSRFSGSGSGTDFTLTISSLQPEDFATYYCQQHYGTPYTFGGGTKVEIK
notes: Humanized; also called 35230Hu50C5-6
Regarding B11, the “IC50 for TF-1 proliferation” value in assay [1] came to 0.0239 µg/mL. For the same molecule, in assay [2], the Kd worked out at 31.1 pM, the off-rate (koff) was determined as 0.000138 s⁻¹ and the kon stood at 4.42e+06 M⁻¹ s⁻¹.

B12: Hu50C5-19 (antibody, V domains shown)
VH: B11 VH with M48I, V68T, I70L
VL: B11 VL with I48V, G57D, D70Q
notes: Humanized; also called 35230Hu50C5-19
Consider B12, for which the “IC50 for TF-1 proliferation” value in assay [1] turned out to be 0.017 µg/mL. Also, in assay [2], the Kd was 23 pM, the koff was 0.000106 s⁻¹ and the association rate constant (kon) was 4.62e+06 M⁻¹ s⁻¹.

B13: Hu50C5-18 (antibody, V domains shown)
VH: B11 VH with M48I, V68T, I70L
VL: B11 VL with I48V, G57D
notes: Humanized
For B13, the “IC50 for TF-1 proliferation” value in assay [1] worked out at 0.0413 µg/mL. Further, in assay [2], the dissociation constant Kd stood at 23.1 pM, the dissociation rate constant (koff) is 0.000109 s⁻¹ and the kon worked out at 4.72e+06 M⁻¹ s⁻¹.

B14: Hu50C5-8 (antibody, V domains shown)
VH: B11 VH
VL: B11 VL with I48V, G57D
notes: Humanized; also called 35230Hu50C5-8
Turning to B14, the “IC50 for TF-1 proliferation” value in assay [1] is 0.0459 µg/mL. In assay [2], the Kd is 28.2 pM, the koff came to 0.000139 s⁻¹ and the kon came out at 4.91e+06 M⁻¹ s⁻¹.

B15: Hu50C5-17 (antibody, V domains shown)
VH: B11 VH with M48I, V68T, I70L
VL: B11 VL with I48V
notes: Humanized; also called 35230Hu50C5-17
Regarding B15, in assay [1], the “IC50 for TF-1 proliferation” value worked out at 0.0221 µg/mL. In assay [2], the dissociation constant Kd is 24.9 pM, the koff was found to be 0.000111 s⁻¹ and the on-rate constant (kon) came to 4.47e+06 M⁻¹ s⁻¹. For the same molecule, the concentration for a half-maximal effect (EC50) in assay [3] came out at 0.0189 µg/mL.

B16: Hu50C5-23 (antibody, V domains shown)
VH: B11 VH with S30T, M48I, V68T, I70L
VL: B11 VL with I48V, G57D
notes: Humanized; also called 35230Hu50C5-23
In the case of B16, the “IC50 for TF-1 proliferation” value in assay [1] was determined as 0.0143 µg/mL. Moreover, in assay [2], the Kd was found to be 27.6 pM, the koff worked out at 0.000125 s⁻¹ and the kon was 4.54e+06 M⁻¹ s⁻¹. Also, the EC50 in assay [3] was 0.0216 µg/mL.

B17: Hu50C5-11 (antibody, V domains shown)
VH: B11 VH with M48I
VL: B11 VL
notes: Humanized; also called 35230Hu50C5-11
In the case of B17, the “IC50 for TF-1 proliferation” value in assay [1] was determined as 0.111 µg/mL. Moreover, in assay [2], the Kd was 31.2 pM, the dissociation rate constant (koff) stood at 0.000136 s⁻¹ and the kon was 4.37e+06 M⁻¹ s⁻¹.

B18: Hu50C5-21 (antibody, V domains shown)
VH: B11 VH with S30T, M48I, V68T, I70L
VL: B11 VL
notes: Humanized; also called 35230Hu50C5-21
With B18, the “IC50 for TF-1 proliferation” value in assay [1] was determined as 0.0216 µg/mL. In addition, in assay [2], the Kd is 23.6 pM, the koff came out at 0.000108 s⁻¹ and the kon is 4.59e+06 M⁻¹ s⁻¹.

B19: 50C5 chimera (antibody, V domains shown)
VH: QVQLQQSAAELVRPGASVKMSCKASGYIFTPYSIHWIKQRPGQGLEWIGYINPSTGYIEYNQHFKDRTTLTADKSSSTAYMQLRSLTSEDSAVYYCARGGDYEGYFDYWGQGTTLTVSS
VL: DIQMTQSPDSLSASVGETVTITCRLNENIYSFLAWYQQRQGKSPQLLVYNAETLAEDVPSRFSGSGSGTQFSLKISSLQTDDFGTYYCQQHYGTPYTFGGGTNLEIE
notes: Human constant regions (captured by anti-human Fc IgG); also called 35230Hu50C5-chimera; Hu50C5-chimera
With B19, in assay [1], the “IC50 for TF-1 proliferation” value was 0.0865 µg/mL. In addition, in assay [2], the dissociation constant (Kd) amounted to 32 pM, the koff was found to be 0.000142 s⁻¹ and the kon was 4.43e+06 M⁻¹ s⁻¹.
